Laboratory results from paper PMC12110046.

Key:
eel LH/CGR-N306Q (eel) [1] = molecular target: eel LH/CGR-N306Q (eel)
eel LH/CGR-N312Q (eel) [2] = molecular target: eel LH/CGR-N312Q (eel)
eel LH/CGR-N49Q (eel) [3] = molecular target: eel LH/CGR-N49Q (eel)
[4] = molecular target: eel lutropin/chorionic gonadotropin receptor, wild type (eel)
eel LH/CGR-N306Q (eel) [5] = molecular target: eel LH/CGR-N306Q (eel); remark: listed apart in the source
eel LH/CGR-N312Q (eel) [6] = molecular target: eel LH/CGR-N312Q (eel); remark: listed apart in the source
eel LH/CGR-N49Q (eel) [7] = molecular target: eel LH/CGR-N49Q (eel); remark: listed apart in the source
[8] = molecular target: eel lutropin/chorionic gonadotropin receptor, wild type (eel); remark: listed apart in the source

An EC50 of the cAMP response (HTRF), transfected CHO-K1 cells, rec-eel LH for 30 min (eel LH/CGR-N306Q (eel) [1]) of 0.233 mg/L, an EC50 of the cAMP response (HTRF), transfected CHO-K1 cells, rec-eel LH for 30 min (eel LH/CGR-N312Q (eel) [2]) of 0.235 mg/L and an EC50 of the cAMP response (HTRF), transfected CHO-K1 cells, rec-eel LH for 30 min (eel LH/CGR-N49Q (eel) [3]) of 0.215 mg/L were found for recombinant eel LH (ligand) in this work. The EC50 of the cAMP response (HTRF), transfected CHO-K1 cells, rec-eel LH for 30 min [4] was 0.19 mg/L, the pERK1/2 activity (HTRF), transfected HEK-293 cells, rec-eel LH 250 ng/mL for 0-30 min; peak at 5 min, fold over the basal response of LH/CGR-wt (eel LH/CGR-N201Q (eel)) was 2.6 fold and the pERK1/2 activity (HTRF), transfected HEK-293 cells, rec-eel LH 250 ng/mL for 0-30 min; peak at 5 min, fold over the basal response of LH/CGR-wt (eel LH/CGR-N306Q (eel) [5]) was 3.1 fold. It also gave a pERK1/2 activity (HTRF), transfected HEK-293 cells, rec-eel LH 250 ng/mL for 0-30 min; peak at 5 min, fold over the basal response of LH/CGR-wt (eel LH/CGR-N312Q (eel) [6]) of 3.7 fold, a pERK1/2 activity (HTRF), transfected HEK-293 cells, rec-eel LH 250 ng/mL for 0-30 min; peak at 5 min, fold over the basal response of LH/CGR-wt (eel LH/CGR-N49Q (eel) [7]) of 3.3 fold and a pERK1/2 activity (HTRF), transfected HEK-293 cells, rec-eel LH 250 ng/mL for 0-30 min; peak at 5 min, fold over the basal response [8] of 3.97 fold.
